Experimental data taken from the RNAGym collection of RNA variant scans (doi:10.7554/elife.90254).

B1: LINE1-mini (parent)
chain: GGCAGAGCUCAACACAGCGUGGCAAAGUGGCUGUGGCUAGACUGCC

Variants of: B1
Assay: self-cleavage, relative activity (ratio to wild type); higher = more cleavage; in vitro, sequencing; the parent is a self-cleaving ribozyme

First: C3G A11C
Second: C3G A11G
The self-cleavage of the first is lower: 0.04 for the first, 0.09 for the second.

First: C3G A11U
Second: C3U G7C
The self-cleavage of the first is lower: 0.03 for the first, 0.17 for the second.

Going from C3U G7A to C3U G7U, the self-cleavage falls from 0.26 to 0.11.

First: C3A G36U
Second: C3A G36A
The self-cleavage of the first is lower: 0.38 for the first, 1.1 for the second.

Going from C3A G36C to C3G A4G, the self-cleavage falls from 1.01 to 0.2.

First: C3G A4C
Second: C3G A4U
The self-cleavage of the first is lower: 0.11 for the first, 0.36 for the second.

Going from C3A G40C to C3A G40U, the self-cleavage rises from 0.19 to 0.21.

First: C3A G40A
Second: C3A C8U
The self-cleavage of the first is lower: 0.16 for the first, 0.69 for the second.

Going from C3A C8A to C3A C8G, the self-cleavage falls from 0.85 to 0.3.

Compared with C3G C15G, C3G C15U is higher in self-cleavage: 0.04 for the first, 0.25 for the second.

First: C3G C15A
Second: C3A C10U
The self-cleavage of the first is lower: 0.18 for the first, 0.19 for the second.

First: C3A C10G
Second: C3A C10A
The self-cleavage of the first is lower: 0.05 for the first, 0.07 for the second.

C3U A25C and C3U A25U are the same in self-cleavage: 0.52 for the first, 0.52 for the second.

Going from C3U A25G to C3G G33C, the self-cleavage falls from 0.27 to 0.12.

Compared with C3G G33U, C3G G33A is higher in self-cleavage: 0.2 for the first, 0.23 for the second.

Compared with C3U G36A, C3U G36U is lower in self-cleavage: 0.34 for the first, 0.22 for the second.

Compared with C3U G36C, C3G C37U is higher in self-cleavage: 0.19 for the first, 0.5 for the second.

First: C3G C37A
Second: C3G C37G
The self-cleavage of the first is higher: 0.29 for the first, 0.13 for the second.

First: C3A G44A
Second: C3A G44C
The self-cleavage of the first is higher: 0.91 for the first, 0.86 for the second.

Compared with C3A G44U, C3A U38A is lower in self-cleavage: 2.11 for the first, 0.34 for the second.

Compared with C3A U38C, C3A U38G is higher in self-cleavage: 0.26 for the first, 0.51 for the second.

Compared with C3G C18A, C3G C18U is higher in self-cleavage: 0.17 for the first, 0.54 for the second.

First: C3G C18G
Second: C3G A14U
The self-cleavage of the first is lower: 0.15 for the first, 0.32 for the second.

First: C3G A14C
Second: C3G A14G
The self-cleavage of the first is lower: 0.06 for the first, 1.31 for the second.

First: C3U G21A
Second: C3U G21U
The self-cleavage of the first is higher: 1.19 for the first, 0.41 for the second.

Compared with C3U G21C, C3U A24G is lower in self-cleavage: 0.47 for the first, 0.24 for the second.

Compared with C3U A24U, C3U A24C is lower in self-cleavage: 0.73 for the first, 0.37 for the second.

Going from C3U G19U to C3U G19A, the self-cleavage rises from 0.32 to 0.83.

Compared with C3U G19C, C3G A16G is lower in self-cleavage: 0.25 for the first, 0.23 for the second.

Compared with C3G A16U, C3G A16C is lower in self-cleavage: 0.18 for the first, 0.12 for the second.

Compared with C3U A39C, C3U A39U is higher in self-cleavage: 0.19 for the first, 0.38 for the second.

Going from C3U A39G to C3A G21U, the self-cleavage rises from 0.2 to 0.47.

Going from C3A G21A to C3A G21C, the self-cleavage falls from 1.23 to 0.23.

Compared with C3U A11G, C3U A11C is higher in self-cleavage: 0.03 for the first, 0.06 for the second.

First: C3U A11U
Second: C3A C18G
The self-cleavage of the first is lower: 0.08 for the first, 0.2 for the second.

First: C3A C18A
Second: C3A C18U
The self-cleavage of the first is lower: 0.18 for the first, 0.49 for the second.

C3A U28A and C3A U28C are the same in self-cleavage: 0.32 for the first, 0.32 for the second.

First: C3A U28G
Second: C3A C37U
The self-cleavage of the first is higher: 0.42 for the first, 0.33 for the second.

First: C3A C37A
Second: C3A C37G
The self-cleavage of the first is higher: 0.35 for the first, 0.28 for the second.

Going from C3G G22A to C3G G22U, the self-cleavage rises from 0.36 to 0.38.

Going from C3G G22C to C3U C15U, the self-cleavage rises from 0.26 to 0.32.

C3U C15G and C3U C15A are the same in self-cleavage: 0.08 for the first, 0.08 for the second.

Going from C3U A14G to C3U A14C, the self-cleavage falls from 0.34 to 0.08.

Going from C3U A14U to C3A G19C, the self-cleavage falls from 0.19 to 0.18.

First: C3A G19A
Second: C3A G19U
The self-cleavage of the first is higher: 0.61 for the first, 0.24 for the second.

Compared with C3A C15U, C3A C15G is lower in self-cleavage: 0.41 for the first, 0.09 for the second.

First: C3A C15A
Second: C3G C10U
The self-cleavage of the first is higher: 0.24 for the first, 0.19 for the second.

Compared with C3G C10A, C3G C10G is lower in self-cleavage: 0.05 for the first, 0.04 for the second.

Going from C3U C13G to C3U C13U, the self-cleavage rises from 0.14 to 0.23.

Compared with C3U C13A, C3U A12C is lower in self-cleavage: 0.15 for the first, 0.06 for the second.

Going from C3U A12U to C3U A12G, the self-cleavage falls from 0.35 to 0.06.

Compared with C3G G21C, C3G G21A is higher in self-cleavage: 0.41 for the first, 1.1 for the second.

Going from C3G G21U to C3A G30A, the self-cleavage rises from 0.48 to 1.1.

Going from C3A G30U to C3A G30C, the self-cleavage falls from 0.61 to 0.58.

First: C3G A6U
Second: C3G A6C
The self-cleavage of the first is higher: 0.79 for the first, 0.27 for the second.

Compared with C3G A6G, C3U C45G is higher in self-cleavage: 0.08 for the first, 0.12 for the second.

First: C3U C45U
Second: C3U C45A
The self-cleavage of the first is higher: 0.32 for the first, 0.2 for the second.

Compared with C3G C45G, C3G C45A is lower in self-cleavage: 1.97 for the first, 0.45 for the second.

Compared with C3G C45U, C3A G29C is lower in self-cleavage: 0.33 for the first, 0.25 for the second.

First: C3A G29A
Second: C3A G29U
The self-cleavage of the first is lower: 0.51 for the first, 0.71 for the second.

Going from C3G G5U to C3G G5A, the self-cleavage rises from 0.11 to 0.68.

Going from C3G G5C to C3U G22U, the self-cleavage rises from 0.58 to 0.82.

Compared with C3U G22C, C3U G22A is lower in self-cleavage: 0.48 for the first, 0.34 for the second.

Going from C3G G19C to C3G G19U, the self-cleavage rises from 0.16 to 0.56.

Compared with C3G G19A, C3G C31U is lower in self-cleavage: 0.59 for the first, 0.07 for the second.

First: C3G C31G
Second: C3G C31A
The self-cleavage of the first is lower: 0.07 for the first, 0.15 for the second.

Compared with C3U C8G, C3U C8U is higher in self-cleavage: 0.15 for the first, 0.71 for the second.

Compared with C3U C8A, C3A C23G is higher in self-cleavage: 0.38 for the first, 0.45 for the second.

First: C3A C23A
Second: C3A C23U
The self-cleavage of the first is lower: 0.61 for the first, 0.71 for the second.

Compared with C3G A12G, C3G A12C is higher in self-cleavage: 0.09 for the first, 0.19 for the second.

Going from C3G A12U to C3U G17A, the self-cleavage falls from 0.43 to 0.1.

Compared with C3U G17U, C3U G17C is higher in self-cleavage: 0.12 for the first, 0.18 for the second.

First: C3G U20C
Second: C3G U20A
The self-cleavage of the first is higher: 0.41 for the first, 0.35 for the second.

Going from C3G U20G to C3A G22U, the self-cleavage rises from 0.41 to 0.71.

First: C3A G22C
Second: C3A G22A
The self-cleavage of the first is higher: 0.58 for the first, 0.52 for the second.

Going from C3U C10U to C3U C10G, the self-cleavage falls from 0.15 to 0.03.

First: C3U C10A
Second: C3G G29A
The self-cleavage of the first is lower: 0.05 for the first, 0.38 for the second.

Compared with C3G G29C, C3G G29U is higher in self-cleavage: 0.43 for the first, 0.55 for the second.

Going from C3G G44C to C3G G44U, the self-cleavage rises from 0.93 to 1.21.

First: C3G G44A
Second: C3G A39C
The self-cleavage of the first is higher: 0.35 for the first, 0.14 for the second.

Going from C3G A39U to C3G A39G, the self-cleavage rises from 0.27 to 0.56.

Going from C3G C23G to C3G C23A, the self-cleavage rises from 0.2 to 0.47.

Going from C3G C23U to C3A U43A, the self-cleavage falls from 0.81 to 0.39.

Work on C3A U43G yielded a self-cleavage of 0.04.
